Experimental data published in publication PMC8174753.

Test system: T1, GtrR (Burkholderia cenocepacia H111), ORF:a5d7dc98
T1 sequence: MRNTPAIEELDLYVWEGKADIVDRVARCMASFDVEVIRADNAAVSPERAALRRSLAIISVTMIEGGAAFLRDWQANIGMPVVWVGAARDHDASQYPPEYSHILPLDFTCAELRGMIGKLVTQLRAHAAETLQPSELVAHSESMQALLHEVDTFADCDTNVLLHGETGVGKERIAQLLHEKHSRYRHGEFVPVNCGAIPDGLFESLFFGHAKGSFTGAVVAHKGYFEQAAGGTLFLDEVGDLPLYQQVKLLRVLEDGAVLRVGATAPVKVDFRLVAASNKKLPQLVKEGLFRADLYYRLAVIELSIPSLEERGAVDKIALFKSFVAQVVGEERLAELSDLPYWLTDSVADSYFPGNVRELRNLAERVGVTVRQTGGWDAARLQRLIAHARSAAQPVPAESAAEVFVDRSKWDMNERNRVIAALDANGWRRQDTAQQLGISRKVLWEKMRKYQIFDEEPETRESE
Test: EMSA
Conditions: Binding reactions per manufacturer's instructions (Thermo), 3'-biotin probes, 5% polyacrylamide gel; buffer, salt, pH and temperature not stated

GGCTTGCGTATTTCTGGCCCGGTTGATTGATTTTGGTTGTGATTTTTTGCCACGCAACGTCGAAAACGCATCGCGCGGCCCCAGTTCGCTCTCGTATCGAAAATGAGATTTTCGATTTCGCAGACAATTGTTAAATGCGGAACCGATATCCGTCAACCTGAGAAAACGGGCGGCTTGCGTAAAATCGAAATCGCGGGTACCGGTTTAAGGTTGCAATGCAGCA (double strand) [Bcal3178 promoter 223 bp]
binding: no binding
